The values that follow come from paper doi:10.1101/2021.05.10.443412 (bioRxiv, 2021).

Residue numbers refer to the chain shown, from its start.

Among the targets are FIH-1 N171A (human, UniProt Q9NWT6 1-349, Asn171 replaced with Ala); FIH-1 Y71A (human, UniProt Q9NWT6 1-349, Tyr71 replaced with Ala); FIH-1 E79A (human, UniProt Q9NWT6 1-349, Glu79 replaced with Ala); FIH-1 E29A (human, UniProt Q9NWT6 1-349, Glu29 replaced with Ala); FIH-1 K75A (human, UniProt Q9NWT6 1-349, Lys75 replaced with Ala); FIH-1 E250A (human, UniProt Q9NWT6 1-349, Glu250 replaced with Ala); FIH-1 D248A (human, UniProt Q9NWT6 1-349, Asp248 replaced with Ala).

Common to all, as to assay: ITC
A general note: ITC needs no label: the signal is the heat of the interaction.

In experiment [1] the target is factor inhibiting HIF-1 (FIH-1), full-length (human, UniProt Q9NWT6 1-349).
Chain of factor inhibiting HIF-1 (FIH-1), full-length (Q9NWT6 whole entry): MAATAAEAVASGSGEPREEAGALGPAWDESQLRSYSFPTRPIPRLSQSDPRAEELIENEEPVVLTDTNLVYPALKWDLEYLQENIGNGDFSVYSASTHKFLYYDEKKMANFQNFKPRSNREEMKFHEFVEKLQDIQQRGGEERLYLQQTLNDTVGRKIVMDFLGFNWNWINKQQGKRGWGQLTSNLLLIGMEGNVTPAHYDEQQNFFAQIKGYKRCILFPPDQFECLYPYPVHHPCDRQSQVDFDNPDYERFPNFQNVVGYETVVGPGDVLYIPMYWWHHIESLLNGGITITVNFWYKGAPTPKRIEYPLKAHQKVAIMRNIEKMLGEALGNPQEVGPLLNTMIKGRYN

Chain of FIH-1 E79A (Q9NWT6 whole entry E79A): as the sequence (Q9NWT6 whole entry) above, with E79A counted along it
Chain of FIH-1 K75A (Q9NWT6 whole entry K75A): as the sequence (Q9NWT6 whole entry) above, with K75A counted along it
Chain of FIH-1 E250A (Q9NWT6 whole entry E250A): as the sequence (Q9NWT6 whole entry) above, with E250A counted along it
Chain of FIH-1 D248A (Q9NWT6 whole entry D248A): as the sequence (Q9NWT6 whole entry) above, with D248A counted along it
Chain of FIH-1 N171A (Q9NWT6 whole entry N171A): as the sequence (Q9NWT6 whole entry) above, with N171A counted along it
Chain of FIH-1 E29A (Q9NWT6 whole entry E29A): as the sequence (Q9NWT6 whole entry) above, with E29A counted along it
Chain of FIH-1 Y71A (Q9NWT6 whole entry Y71A): as the sequence (Q9NWT6 whole entry) above, with Y71A counted along it

B1: Mint3NT, N-terminal fragment (1-214) of Mint3 (domain or fragment)
chain: MDFPTISRSPSGPPAMDLEGPRDILVPSEDLTPDSQWDPMPGGPGSLSRMELDESSLQELVQQFEALPGDLVGPSPGGAPCPLHIATGHGLASQEIADAHGLLSAEAGRDDLLGLLHCEECPPSQTGPEEPLEPAPRLLQPPEDPDEDSDSPEWVEGASAEQEGSRSSSSSPEPWLETVPLVTPEEPPAGAQSPETLASYPAPQEVPGPCDHED
For orientation: stoichiometry N means a count of units in the complex or per binding partner. B1: the binding result with FIH-1 N171A, with FIH-1 Y71A, with FIH-1 E79A, with FIH-1 E29A, in the experiment with FIH-1 K75A and in the experiment with FIH-1 E250A was “binds” each time. Further, the binding result with FIH-1 D248A was “binds”. Further, the dH in experiment [1] was -32.2 ± 0.7 kcal/mol. The “stoichiometry N” value in experiment [1] amounted to 0.48 ± 0.02.

B2: Mint3NTmut (domain or fragment)
chain: B1 chain with G101A, L102A, L103A, E106A
As a reminder, the Kd is a measure of binding affinity in units of concentration. Lower therefore signals a tighter complex. In the case of B2, in experiment [1], the Kd came out at 1310 nM, the dH was -13.9 kcal/mol and the “stoichiometry N” value was approximately 0.5.

B3: Mint3 fragment (1-92) (domain or fragment)
chain: MDFPTISRSPSGPPAMDLEGPRDILVPSEDLTPDSQWDPMPGGPGSLSRMELDESSLQELVQQFEALPGDLVGPSPGGAPCPLHIATGHGLA
B3: in experiment [1], the “stoichiometry N” value is approximately 0.5.

B4: Mint3 (1-117) (domain or fragment)
chain: MDFPTISRSPSGPPAMDLEGPRDILVPSEDLTPDSQWDPMPGGPGSLSRMELDESSLQELVQQFEALPGDLVGPSPGGAPCPLHIATGHGLASQEIADAHGLLSAEAGRDDLLGLLH
For B4, in experiment [1], binding was put at a Kd of 650 ± 70 nM and the “stoichiometry N” value was approximately 0.5.

B5: short peptide of Mint3 (93-117) (peptide)
chain: SQEIADAHGLLSAEAGRDDLLGLLH
As to B5, in experiment [1], the affinity, expressed as Kd, was 3000 ± 600 nM and the “stoichiometry N” value was approximately 0.5.
